The assay has as its target T1, ubiquitin-vinylmethylester (UniProt P0CG48 1-76, vinylmethylester (Michael acceptor) added to the C-terminus).
T1 construct: also called ubiquitin-VME; ubiquitin probe
As to the kind of experiment: covalent adduct formation with electrophilic (activity-based) probe, SDS-PAGE and Coomassie staining. Conditions: both partners purified.

B1: His-tagged elaD, bacterially expressed (enzyme)
chain: MMVTVVSNYCQLSQTQLSQTFAEKFTVTEELLQSLKKTALSGDEESIELLHNIALGYDKFGKEAEDILYHIVRTPTNETLSIIRLIKNACLKLYNLAHIATNSPLKSHDSDDLLFKKLFSPSKLMTIIGDEIPLISEKQSLSKVLLNDENNELSDGTNFWDKNRQLTTDEIACYLQKIAANAKNTQVNYPTGLYVPYSTRTHLEDALNENIKSDPSWPNEVQLFPINTGGHWILVSLQKIVNKKNNKLQIKCVIFNSLRALGYDKENSLKRVINSFNSELMGEMSNNNIKVHLNEPEIIFLHADLQQYLSQSCGAFVCMAAQEVIEQRESNSDSAPYTLLKNHADRFKKYSAEEQYEIDFQHRLANRNCYLDKYGDANINHYYRNLEIKHSQPKNRASGKRVS
notes: also called recombinant elaD
Consider B1, for which the binding result was “binds”.

Values taken from PMC1847702 (PLoS ONE, 2007).
